Data taken from paper PMC11602160, “Modulation of UPF1 catalytic activity upon interaction of SARS-CoV-2 Nucleocapsid protein with factors involved in nonsense mediated-mRNA decay” (Nucleic Acids Research, 2024).

Molecular target: T1, full-length GST-tagged SARS-CoV-2 Nucleocapsid (N) protein (SARS-CoV-2, UniProt P0DTC9 1-419)
T1 construct: SARS-CoV-2 Nucleocapsid (N) protein, full length; also called GST-N
Test: pull-down
Settings: both partners purified

B1: UPF2 truncated construct lacking 120 and 45 residues at the N- and C-termini (domain or fragment, human, UniProt Q9HAU5 121-1227, looked up)
chain: MKEKEESIQLHQEAWERHHLRKELRSKNQNAPDSRPEENFFSRLDSSLKKNTAFVKKLKTITEQQRDSLSHDFNGLNLSKYIAEAVASIVEAKLKISDVNCAVHLCSLFHQRYADFAPSLLQVWKKHFEARKEEKTPNITKLRTDLRFIAELTIVGIFTDKEGLSLIYEQLKNIINADRESHTHVSVVISFCRHCGDDIAGLVPRKVKSAAEKFNLSFPPSEIISPEKQQPFQNLLKEYFTSLTKHLKRDHRELQNTERQNRRILHSKGELSEDRHKQYEEFAMSYQKLLANSQSLADLLDENMPDLPQDKPTPEEHGPGIDIFTPGKPGEYDLEGGIWEDEDARNFYENLIDLKAFVPAILFKDNEKSCQNKESNKDDTKEAKESKENKEVSSPDDLELELENLEINDDTLELEGGDEAEDLTKKLLDEQEQEDEEASTGSHLKLIVDAFLQQLPNCVNRDLIDKAAMDFCMNMNTKANRKKLVRALFIVPRQRLDLLPFYARLVATLHPCMSDVAEDLCSMLRGDFRFHVRKKDQINIETKNKTVRFIGELTKFKMFTKNDTLHCLKMLLSDFSHHHIEMACTLLETCGRFLFRSPESHLRTSVLLEQMMRKKQAMHLDARYVTMVENAYYYCNPPPAEKTVKKKRPPLQEYVRKLLYKDLSKVTTEKVLRQMRKLPWQDQEVKDYVICCMINIWNVKYNSIHCVANLLAGLVLYQEDVGIHVVDGVLEDIRLGMEVNQPKFNQRRISSAKFLGELYNYRMVESAVIFRTLYSFTSFGVNPDGSPSSLDPPEHLFRIRLVCTILDTCGQYFDRGSSKRKLDCFLVYFQRYVWWKKSLEVWTKDHPFPIDIDYMISDTLELLRPKIKLCNSLEESIRQVQDLEREFLIKLGLVNDKDSKDSMTEGENLEEDEEEEEGGAETEEQSGNESEVNEPEEEEGSDNDDDEGEEEEEENTDYLTDSNKENETDEENTEVMIKGGGLKHVPCVEDEDFIQALDKMMLENLQQRSGESVKVHQLDVAIPLHLKSQLRKGPPLGGGEGEAESADTMPFVMLTRKGNKQQFKILNVPMSSQLAANHWNQQQAEQEERMRMKKLTLDINERQEQED
notes: human UPF2 lacking 120 residues at the N-terminus and 45 residues at the C-terminus
binding result: binds
